# B1: Haemagglutinin (HA)-tagged PIPKIγ635 (enzyme, not shown: small tags and cut ends)
# chain: MELEVPDEAESAEAGAVTAEAAWSAESGAAAGMTQKKAGLAEAPLVTGQPGPGHGKKLGHRGVDASGETTYKKTTSSTLKGAIQLGIGYTVGNLSSKPERDVLMQDFYVMESIFFPSEGSNFTPAHHFQDFRFKTYAPVAFRYFRELFGIRPDDYLYSLCNEPLIELSNPGASGSVFYVTSDDEFIIKTVMHKEAEFLQKLLPGYYMNLNQNPRTLLPKFYGLYCVQSGGKNIRVVVMNNVLPRVVKMHLKFDLKGSTYKRRASKKEKEKSLPTYKDLDFMQDMPEGLLLDSDTFGALVKTLQRDCLVLESFKIMDYSLLLGVHNIDQQERERQAEGAQSKADEKRPVAQKALYSTAMESIQGGAARGEAIETDDTMGGIPAVNGRGERLLLHIGIIDILQSYRFIKKLEHTWKALVHDGDTVSVHRPSFYAERFFKFMSSTVFRKSSSLKSSPSKKGRGALLAVKPLGPTAAFSASQIPSEREDVQYDLRGARSYPTLEDEGRPDLLPCTPPSFEEATTASIATTLSSTSLSIPERSPSDTSEQPRYRRRTQSSGQDGRPQEEPHAEDLQKITVQVEPVCGVGVVPKEEGAGVEVPPCGASAAASVEIDAASQASEPASQASDEEDAPSTDIYF
# Target: T1, talin (Homo sapiens (Human), UniProt Q9Y490 1-2541)
# T1 construct: Endogenous talin of HEK293T (and other) cells, detected with anti-talin antibody; also called talin (endogenous, in cell lysates)
# T1 sequence (Q9Y490 other isoform, or with tags, fused parts or gaps limits assumed): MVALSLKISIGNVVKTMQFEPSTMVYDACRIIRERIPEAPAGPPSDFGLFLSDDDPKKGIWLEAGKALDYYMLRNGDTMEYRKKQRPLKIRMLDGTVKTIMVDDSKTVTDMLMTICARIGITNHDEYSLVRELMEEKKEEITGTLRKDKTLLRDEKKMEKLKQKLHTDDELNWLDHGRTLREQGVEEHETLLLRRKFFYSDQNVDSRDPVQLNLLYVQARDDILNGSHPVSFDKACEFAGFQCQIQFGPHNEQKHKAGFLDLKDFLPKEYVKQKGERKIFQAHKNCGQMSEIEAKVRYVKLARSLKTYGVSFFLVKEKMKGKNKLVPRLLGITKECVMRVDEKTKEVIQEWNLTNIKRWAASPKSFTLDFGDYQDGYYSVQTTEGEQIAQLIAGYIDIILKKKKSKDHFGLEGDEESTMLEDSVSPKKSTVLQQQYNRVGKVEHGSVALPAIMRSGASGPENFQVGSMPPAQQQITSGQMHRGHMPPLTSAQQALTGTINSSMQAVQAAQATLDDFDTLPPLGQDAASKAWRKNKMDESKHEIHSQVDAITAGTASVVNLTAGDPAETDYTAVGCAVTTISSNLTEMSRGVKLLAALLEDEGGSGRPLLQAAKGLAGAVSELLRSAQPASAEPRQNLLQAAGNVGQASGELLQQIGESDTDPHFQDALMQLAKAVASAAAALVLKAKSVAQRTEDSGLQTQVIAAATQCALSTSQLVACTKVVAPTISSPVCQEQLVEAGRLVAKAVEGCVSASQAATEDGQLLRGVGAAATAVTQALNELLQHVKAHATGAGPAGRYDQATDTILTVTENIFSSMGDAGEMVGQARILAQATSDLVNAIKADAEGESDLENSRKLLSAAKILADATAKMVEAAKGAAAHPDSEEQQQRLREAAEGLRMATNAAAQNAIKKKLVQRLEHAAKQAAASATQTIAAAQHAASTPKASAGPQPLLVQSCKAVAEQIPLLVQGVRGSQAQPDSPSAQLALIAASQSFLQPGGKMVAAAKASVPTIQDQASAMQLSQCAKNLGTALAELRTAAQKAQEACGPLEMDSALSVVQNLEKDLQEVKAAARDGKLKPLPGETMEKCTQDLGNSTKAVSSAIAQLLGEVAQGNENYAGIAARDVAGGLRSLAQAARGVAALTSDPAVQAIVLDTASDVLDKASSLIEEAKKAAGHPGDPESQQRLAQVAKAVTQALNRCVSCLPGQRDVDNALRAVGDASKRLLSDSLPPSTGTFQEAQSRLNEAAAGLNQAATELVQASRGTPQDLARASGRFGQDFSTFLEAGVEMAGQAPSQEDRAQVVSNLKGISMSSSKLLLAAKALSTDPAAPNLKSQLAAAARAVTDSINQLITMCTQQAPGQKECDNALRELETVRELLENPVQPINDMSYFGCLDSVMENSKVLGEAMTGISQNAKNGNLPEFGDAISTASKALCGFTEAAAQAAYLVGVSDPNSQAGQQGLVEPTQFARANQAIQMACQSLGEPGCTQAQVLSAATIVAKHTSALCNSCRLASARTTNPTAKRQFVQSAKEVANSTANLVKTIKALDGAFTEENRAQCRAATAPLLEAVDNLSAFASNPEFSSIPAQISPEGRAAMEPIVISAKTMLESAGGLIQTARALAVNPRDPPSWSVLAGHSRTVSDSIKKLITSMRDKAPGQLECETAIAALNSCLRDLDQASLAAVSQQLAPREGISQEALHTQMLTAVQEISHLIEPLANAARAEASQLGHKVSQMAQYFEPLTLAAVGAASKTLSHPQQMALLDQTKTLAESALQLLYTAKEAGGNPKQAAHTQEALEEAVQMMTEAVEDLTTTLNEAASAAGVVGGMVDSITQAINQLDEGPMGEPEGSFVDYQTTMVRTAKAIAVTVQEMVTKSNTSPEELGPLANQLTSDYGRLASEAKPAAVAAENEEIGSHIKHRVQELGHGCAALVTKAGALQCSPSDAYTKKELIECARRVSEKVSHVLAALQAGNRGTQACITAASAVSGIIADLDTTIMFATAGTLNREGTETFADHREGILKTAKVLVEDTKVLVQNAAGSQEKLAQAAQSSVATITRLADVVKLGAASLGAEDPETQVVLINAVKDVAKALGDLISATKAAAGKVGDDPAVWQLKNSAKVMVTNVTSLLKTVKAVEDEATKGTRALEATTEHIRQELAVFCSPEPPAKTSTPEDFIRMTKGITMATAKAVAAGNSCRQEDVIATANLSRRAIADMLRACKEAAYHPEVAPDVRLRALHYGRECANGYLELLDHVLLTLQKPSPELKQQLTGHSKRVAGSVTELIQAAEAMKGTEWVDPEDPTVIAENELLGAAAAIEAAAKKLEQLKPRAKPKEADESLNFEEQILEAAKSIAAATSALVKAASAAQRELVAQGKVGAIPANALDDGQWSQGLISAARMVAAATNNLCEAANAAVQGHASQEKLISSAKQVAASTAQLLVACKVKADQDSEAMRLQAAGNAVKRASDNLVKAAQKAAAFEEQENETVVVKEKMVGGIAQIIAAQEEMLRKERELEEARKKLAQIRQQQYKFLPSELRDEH
# Experiment: immunoprecipitation of talin from HEK293T cells overexpressing the kinase
binder,measurement,value
B1,binding result,no binding
